B1: 双特异性抗体BS-mAb-1 (bispecific antibody)
heavy: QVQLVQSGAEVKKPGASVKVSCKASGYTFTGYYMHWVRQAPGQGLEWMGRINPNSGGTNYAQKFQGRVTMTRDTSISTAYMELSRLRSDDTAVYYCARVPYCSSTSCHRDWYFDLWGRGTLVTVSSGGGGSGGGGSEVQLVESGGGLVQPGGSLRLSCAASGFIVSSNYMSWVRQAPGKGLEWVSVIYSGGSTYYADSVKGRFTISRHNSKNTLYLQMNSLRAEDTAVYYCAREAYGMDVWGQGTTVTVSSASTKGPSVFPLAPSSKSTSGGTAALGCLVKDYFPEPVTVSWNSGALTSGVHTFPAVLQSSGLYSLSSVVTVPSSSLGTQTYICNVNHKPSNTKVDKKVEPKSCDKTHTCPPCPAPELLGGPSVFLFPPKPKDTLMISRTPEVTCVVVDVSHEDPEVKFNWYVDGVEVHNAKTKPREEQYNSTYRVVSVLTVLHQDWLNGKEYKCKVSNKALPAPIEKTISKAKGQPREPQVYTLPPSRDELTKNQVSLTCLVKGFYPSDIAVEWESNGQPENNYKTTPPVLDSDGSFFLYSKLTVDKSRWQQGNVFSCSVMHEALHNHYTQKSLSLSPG
light: DIQMTQSPLSLPVTPGEPASISCRSSQSLLDSDDGNTYLDWYLQKPGQSPQLLIYTLSYRASGVPDRFSGSGSGTDFTLKISRVEAEDVGVYYCMQRIEFPLTFGGGTKVEIKGGGGSGGGGSDIVMTQSPSFLSASVGDRVTITCRASQGISSYLAWYQQKPGKAPKLLIYAASTLQSGVPSRFSGSGSGTEFTLTISSLQPEDFATYYCQQLNSYPPYTFGQGTKLEIKRTVAAPSVFIFPPSDEQLKSGTASVVCLLNNFYPREAKVQWKVDNALQSGNSQESVTEQDSKDSTYSLSSTLTLSKADYEKHKVYACEVTHQGLSSPVTKSFNRGEC
B2: 双特异性抗体BS-mAb-2 (bispecific antibody)
heavy: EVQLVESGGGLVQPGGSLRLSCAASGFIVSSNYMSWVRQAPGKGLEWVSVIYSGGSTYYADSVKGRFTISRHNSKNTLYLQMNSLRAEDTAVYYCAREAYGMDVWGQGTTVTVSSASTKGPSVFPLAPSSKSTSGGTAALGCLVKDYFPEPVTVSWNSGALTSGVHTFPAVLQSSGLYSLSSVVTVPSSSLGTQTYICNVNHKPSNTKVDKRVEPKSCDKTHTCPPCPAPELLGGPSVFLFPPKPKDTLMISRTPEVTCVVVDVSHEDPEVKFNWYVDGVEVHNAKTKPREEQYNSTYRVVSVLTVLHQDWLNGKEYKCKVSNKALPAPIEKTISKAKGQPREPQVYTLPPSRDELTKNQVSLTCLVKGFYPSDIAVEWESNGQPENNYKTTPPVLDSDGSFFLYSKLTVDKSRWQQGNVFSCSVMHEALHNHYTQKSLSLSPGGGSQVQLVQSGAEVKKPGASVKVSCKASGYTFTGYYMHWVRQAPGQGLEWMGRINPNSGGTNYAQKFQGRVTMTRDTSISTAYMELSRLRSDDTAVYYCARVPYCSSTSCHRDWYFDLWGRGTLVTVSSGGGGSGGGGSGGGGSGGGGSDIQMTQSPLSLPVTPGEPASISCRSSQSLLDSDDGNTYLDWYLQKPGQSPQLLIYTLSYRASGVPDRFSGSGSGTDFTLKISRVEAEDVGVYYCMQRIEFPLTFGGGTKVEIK
light: DIVMTQSPSFLSASVGDRVTITCRASQGISSYLAWYQQKPGKAPKLLIYAASTLQSGVPSRFSGSGSGTEFTLTISSLQPEDFATYYCQQLNSYPPYTFGQGTKLEIKRTVAAPSVFIFPPSDEQLKSGTASVVCLLNNFYPREAKVQWKVDNALQSGNSQESVTEQDSKDSTYSLSSTLTLSKADYEKHKVYACEVTHQGLSSPVTKSFNRGECS
B3: 单抗B38 (antibody, V domains shown)
VH: EVQLVESGGGLVQPGGSLRLSCAASGFIVSSNYMSWVRQAPGKGLEWVSVIYSGGSTYYADSVKGRFTISRHNSKNTLYLQMNSLRAEDTAVYYCAREAYGMDVWGQGTTVTVSS
VL: DIVMTQSPSFLSASVGDRVTITCRASQGISSYLAWYQQKPGKAPKLLIYAASTLQSGVPSRFSGSGSGTEFTLTISSLQPEDFATYYCQQLNSYPPYTFGQGTKLEIK

Key:
[1] = target: 新冠病毒S抗原 (on VSV-SARS-CoV-2 pseudovirus, wild type) (新型冠状病毒 (2019-nCoV / SARS-CoV-2), UniProt P0DTC2 14-1273); assay: cell-based or functional assay
带有组氨酸标签的S蛋白RBD = 带有组氨酸标签的S蛋白RBD (新型冠状病毒 (2019-nCoV / SARS-CoV-2), UniProt P0DTC2 319-541)

Row | Binder | 中和滴度(半数中和浓度，NC50), 2019-nCoV假病毒, Hela-hACE2, luciferase [1] [µg/mL] | Kd (带有组氨酸标签的S蛋白RBD) [nM]
1 | B1 | 0.119 | 
2 | B2 | 0.048 | 
3 | B3 | 0.681 | 22.5

— patent publication CN113563475A (INST MICROBIOLOGY CAS, dated 2021)
